A word on the EC50 (read off the curve): it is the midpoint of the concentration-response curve. The low end stands for an effect from little substance, the high end for a need for much substance.

This is an account of results in patent US20250326812A1 (CUGENE, published 2025).

This assay has as its target T1, P-0153, an IL-15/IL-15RαSushi+ Fc fusion protein.
T1 construct: Heterodimeric knob/hole Fc fusion; It served as the plate-coated source of IL-15 in the peptide ELISA
As to the kind of experiment: ELISA; P-0153 coated on the plate at 1 ug/well, biotinylated peptide in 3-fold dilutions from 100 uM, streptavidin-HRP, TMB, OD450. How it is done:
The five peptides, L01 to L05 (SEQ ID NO: 97-101) in Table 13 were synthesized and assessed for their binding to IL-15 in ELISA format. […] Streptavidin-HRP complex at the manufacturer's recommended concentration was added and signal was developed by TMB substrate.

Where no end group is shown, it is not given here.

T1 sequence (chain, as listed by the source, chain 1 of 2): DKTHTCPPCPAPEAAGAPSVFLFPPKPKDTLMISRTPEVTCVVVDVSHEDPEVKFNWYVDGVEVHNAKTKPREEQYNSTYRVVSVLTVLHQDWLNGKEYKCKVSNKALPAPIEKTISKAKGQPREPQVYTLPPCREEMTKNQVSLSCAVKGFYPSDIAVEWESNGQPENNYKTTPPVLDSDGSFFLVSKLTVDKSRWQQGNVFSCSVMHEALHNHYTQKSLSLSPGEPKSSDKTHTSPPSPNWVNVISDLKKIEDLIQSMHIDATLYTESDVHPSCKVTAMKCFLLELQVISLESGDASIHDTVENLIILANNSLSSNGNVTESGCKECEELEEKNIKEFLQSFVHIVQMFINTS
T1 sequence (chain, as listed by the source, chain 2 of 2): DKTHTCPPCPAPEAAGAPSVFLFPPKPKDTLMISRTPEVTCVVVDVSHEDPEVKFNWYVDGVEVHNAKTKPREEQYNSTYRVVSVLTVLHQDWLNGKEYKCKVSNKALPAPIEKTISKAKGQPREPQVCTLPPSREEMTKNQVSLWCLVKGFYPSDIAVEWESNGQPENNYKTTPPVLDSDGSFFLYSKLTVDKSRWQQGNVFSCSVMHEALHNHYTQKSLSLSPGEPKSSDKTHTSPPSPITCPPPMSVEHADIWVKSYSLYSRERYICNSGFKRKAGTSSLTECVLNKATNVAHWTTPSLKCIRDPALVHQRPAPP

B1: L02 (peptide)
peptide: EISQASHYFERHL
modifications: also: biotinylated, site not given here
notes: also called IL-2Rβ loop 2 peptide (linear)
Turning to B1, the binding result was “binds”.

B2: L04 (peptide)
peptide: LGAPDSQKLTTVDIVGGGGGGGGEISQASHYFERHL
modifications: also: biotinylated, site not given here
In the case of B2, the binding result is “binds”.

B3: Blocking peptide L03 (cyclized IL-2Rβ loop 2) (peptide)
peptide: CEISQASHYFERHLC
modifications: also: biotinylated, position not given here, cyclized, mode and sites not given here
notes: Synthetic peptide
With B3, the “EC50 (read off the curve)” value was approximately 8 µM.
